Values of other authors, collected in patent publication US20230279132A1, “TREATMENT OF B CELL MALIGNANCIES” (NOVARTIS AG, priority 2020, published 2023).

System: DLBCL
Conditions: plus lenalidomide; relapsed or refractory DLBCL ineligible for transplants

B1: tafasitamab-cxix: FDA-approved with lenalidomide for relapsed or refractory DLBCL (antibody, chains of the INN, looked up)
heavy: EVQLVESGGGLVKPGGSLKLSCAASGYTFTSYVMHWVRQAPGKGLEWIGYINPYNDGTKYNEKFQGRVTISSDKSISTAYMELSSLRSEDTAMYYCARGTYYYGTRVFDYWGQGTLVTVSSASTKGPSVFPLAPSSKSTSGGTAALGCLVKDYFPEPVTVSWNSGALTSGVHTFPAVLQSSGLYSLSSVVTVPSSSLGTQTYICNVNHKPSNTKVDKKVEPKSCDKTHTCPPCPAPELLGGPDVFLFPPKPKDTLMISRTPEVTCVVVDVSHEDPEVQFNWYVDGVEVHNAKTKPREEQFNSTFRVVSVLTVVHQDWLNGKEYKCKVSNKALPAPEEKTISKTKGQPREPQVYTLPPSREEMTKNQVSLTCLVKGFYPSDIAVEWESNGQPENNYKTTPPMLDSDGSFFLYSKLTVDKSRWQQGNVFSCSVMHEALHNHYTQKSLSLSPG
light: DIVMTQSPATLSLSPGERATLSCRSSKSLQNVNGNTYLYWFQQKPGQSPQLLIYRMSNLNSGVPDRFSGSGSGTEFTLTISSLEPEDFAVYYCMQHLEYPITFGAGTKLEIKRTVAAPSVFIFPPSDEQLKSGTASVVCLLNNFYPREAKVQWKVDNALQSGNSQESVTEQDSKDSTYSLSSTLTLSKADYEKHKVYACEVTHQGLSSPVTKSFNRGEC
CR: 37% | ORR: 55%
